According to patent US20160230226A1:

Target: IL13Rα2 (human) (UniProt Q14627)
Experiment: cell-based or functional assay

Chain of UniProt Q14627 (Q14627 27-380): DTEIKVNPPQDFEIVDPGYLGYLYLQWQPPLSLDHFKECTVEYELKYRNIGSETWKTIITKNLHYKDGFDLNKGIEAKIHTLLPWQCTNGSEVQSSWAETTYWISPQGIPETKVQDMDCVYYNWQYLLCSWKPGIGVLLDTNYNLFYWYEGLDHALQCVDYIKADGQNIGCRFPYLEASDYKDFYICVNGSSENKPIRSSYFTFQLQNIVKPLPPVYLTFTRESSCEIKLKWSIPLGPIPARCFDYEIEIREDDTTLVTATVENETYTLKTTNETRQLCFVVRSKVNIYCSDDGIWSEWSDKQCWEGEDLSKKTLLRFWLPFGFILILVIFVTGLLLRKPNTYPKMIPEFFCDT

Substance: IL-13 (from UniProt P35225 35-146) (ligand)
- IL-13 concentration needed for the same CCL26 or periostin gene induction in IMR90 cells pre-stimulated with TNFα (elevated IL13Rα2) versus not pre-stimulated: 10 fold
